Measurements taken from PMC3114041, “Architectures of archaeal GINS complexes, essential DNA replication initiation factors” (BMC Biology, 2011).

B1: Thermococcus kodakaraensis Gins23 (natural protein, UniProt Q5JIT2 1-164, looked up)
chain: MFTGKALIAVKVMKPFGDWKSGDIVLVEDWKARELWEAGVVEIVDETDKIIGEIDKVIAEERESEPLTLLPEGLYERAEFYAYYLENYVRLNPRESVDTINVKLTKLANLRKKLRDLKLIRFNKILKAVMLRPNSLELLSRLAPEERRIYLQMSKIRNEWLGDA
notes: Gins23 subunit of the GINS complex of Thermococcus kodakaraensis; gins23 gene cloned into modified pET28 (thrombin site replaced by a TEV protease site); 94 to 100 and 132 to 133 missing); The final atomic model holds seven amino acids derived from the N-terminal tag; also called TkoGins23; BA-type subunit of TkoGINS; source: E. coli codonPlus (DE3)-RIL, co-expressed with Gins51, purified (heat …
B2: Thermoplasma acidophilum GINS subunit (TacGins) (natural protein, UniProt Q9HJC8 1-233, looked up)
chain: MKPADIDKLISEIRTAIYAEQSHRKIIEIDPDIYRKVRAALSDLQAEASEYFQKQDIENYLTMNNRFQTLKRDFRSLFQRRFEKIVAKAIYDISGETLSLLTDEEKEFIEKIHNIITEEFESFIPKREEKNEARAEAQPAPADESPTAIADQKPQEEPQVVQDQHQPPAEIPSENIEIKKEDGRYVLVMITEDLPPIAQLDRNYSLHSNDLVYLPQDLASILAKRKVALVLDQ
notes: TacGins, conserved hypothetical protein of Thermoplasma acidophilum, gene Ta1042 cloned into pET21a; the homology model counts residues 1 to 233; also called Ta1042; source: E. coli BL21 codonPlus (DE3)-RIL, purified (heat 60°C, polyethyleneimine, HiTrap Phenyl, HiTrap Q)
B3: Thermococcus kodakaraensis Gins51 (natural protein, UniProt Q5JF31 1-188, looked up)
chain: MDIVKLRELLEAELSSTDLNELDEDFYVEFDSLIKALKLSAESSRERGEDVEERLYLAQLKIAESLMKEIIKLRLHKIVDLAVEGKIAEMTAEEKRLFNVIRAFIEREELPEISEEVQPQEESEAEAEYRSKEVPKEAYIIQIDLPAVLGPDMKEYGPFMAGDMAIIPTVIGRALVEREAARRVRIFL
notes: Gins51 subunit of the GINS complex of Thermococcus kodakaraensis; gins51 gene cloned into pET21a; also called TkoGins51; AB-type subunit of TkoGINS; source: E. coli codonPlus (DE3)-RIL, co-expressed with Gins23, purified (heat 80°C, HiTrap Phenyl, hydroxyapatite, HiTrap Q)

Legend:
[1] = molecular target: Thermococcus kodakaraensis Gins51ΔC (Met1-Arg130) (Thermococcus kodakaraensis); assay: SEC; Superdex 200 PC 3.2/30 on a SMART system; 50 mM Tris-HCl pH 8.0, 0.15 M NaCl, 7 mM β-mercaptoethanol, 0.1 mM EDTA; 20 μl of each protein at 20 μM; fractions on SDS-PAGE
[2] = molecular target: the molecule itself; assay: as above
[3] = molecular target: the molecule itself; assay: SEC + other: electron microscopy; data not shown (Ogino et al.)

Molecule	stoichiometry N [2]	also measured
Thermococcus kodakaraensis Gins51ΔC (Met1-Arg130) (domain or fragment)	–	stoichiometry N [1]: 2
B1	2	–
B2	–	stoichiometry N [3]: 4
B3	2	–
